The source of these data is paper PMC3035906 (Cell Death & Disease, 2010).

This assay concerns the target DR4-Ig (death receptor 4, Ig fusion) (UniProt O00220). As to the kind of experiment: SPR.

DR4-Ig (death receptor 4, Ig fusion), sequence (O00220 24-239): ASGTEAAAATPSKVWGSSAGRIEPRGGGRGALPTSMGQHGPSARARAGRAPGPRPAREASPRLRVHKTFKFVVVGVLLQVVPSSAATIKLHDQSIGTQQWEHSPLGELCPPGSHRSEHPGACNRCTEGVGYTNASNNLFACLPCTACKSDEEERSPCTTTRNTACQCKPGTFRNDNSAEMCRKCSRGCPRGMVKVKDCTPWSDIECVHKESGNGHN

B1: rhTRAIL variant 4C7 (G131R/R149I/S159R/N199R/K201H/S215D) (ligand)
chain: VRERGPQRVAAHITGTRRRSNTLSSPNSKNEKALGIKINSWESSRRGHSFLSNLHLRNGELVIHEKGFYYIYSQTYFRFQEEIKERTHNDKQMVQYIYKYTDYPDPILLMKSARNSCWSKDAEYGLYSIYQGGIFELKENDRIFVSVTNEHLIDMDHEASFFGAFLVG
Consider B1, for which the Kd was found to be 21 ± 10 pM, the koff came out at 5.9e-05 s⁻¹ and the kon amounted to 2.81e+06 M⁻¹ s⁻¹.

B2: rhTRAIL variant 4C9 (G131R/R149I/S159R/S215D) (ligand)
chain: VRERGPQRVAAHITGTRRRSNTLSSPNSKNEKALGIKINSWESSRRGHSFLSNLHLRNGELVIHEKGFYYIYSQTYFRFQEEIKENTKNDKQMVQYIYKYTDYPDPILLMKSARNSCWSKDAEYGLYSIYQGGIFELKENDRIFVSVTNEHLIDMDHEASFFGAFLVG
The molecule B2 registered a Kd of 25 ± 20 pM, an off-rate (koff) of 5.8e-05 s⁻¹ and a kon of 2.35e+06 M⁻¹ s⁻¹.
